Data from patent publication US20210277146A1 (BEIJING DONGFANG BIOTECH, published 2021).

How the values were obtained:
PCSK9 [1] = biological target: T1, PCSK9 (UniProt Q8NBP7 31-692, limits assumed); assay: SPR BIAcore X100, antibody captured by goat anti-human IgG on CM5, PCSK9 as analyte
T1 construct: Printed only as 'PCSK9' in Embodiments 5.4 and 6; also called Proprotein Convertase Subtilisin/Kexin Type 9; PCSK9 solution

PCSK9-His [2] = biological target: T2, PCSK9-His (UniProt Q8NBP7 31-692); assay: competition ELISA, LDLR-Fc coated, PCSK9-His 2 ug/ml, antibody titrated, anti-His-HRP
T2 construct: also called antigen PCSK9-His; Proprotein Convertase Subtilisin/Kexin Type 9; not shown: His tag
T2 sequence (Q8NBP7 31-692 limits assumed): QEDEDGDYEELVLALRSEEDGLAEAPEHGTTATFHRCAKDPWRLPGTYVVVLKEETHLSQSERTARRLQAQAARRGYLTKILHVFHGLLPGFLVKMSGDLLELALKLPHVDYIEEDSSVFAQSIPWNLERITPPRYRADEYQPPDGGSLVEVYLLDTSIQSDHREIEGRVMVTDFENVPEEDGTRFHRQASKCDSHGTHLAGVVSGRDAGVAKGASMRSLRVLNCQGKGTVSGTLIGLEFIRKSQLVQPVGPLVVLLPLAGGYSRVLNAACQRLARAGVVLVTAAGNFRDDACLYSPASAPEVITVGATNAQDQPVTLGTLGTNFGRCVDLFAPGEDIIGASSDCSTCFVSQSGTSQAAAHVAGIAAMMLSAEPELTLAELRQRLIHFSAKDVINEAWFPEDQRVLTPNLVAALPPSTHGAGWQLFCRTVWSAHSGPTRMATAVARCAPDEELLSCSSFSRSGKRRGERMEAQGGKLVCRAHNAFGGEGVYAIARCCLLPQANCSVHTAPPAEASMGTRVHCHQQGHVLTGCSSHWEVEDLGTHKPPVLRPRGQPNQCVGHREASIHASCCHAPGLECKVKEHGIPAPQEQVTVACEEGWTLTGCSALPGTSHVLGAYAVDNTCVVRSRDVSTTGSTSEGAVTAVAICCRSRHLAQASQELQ
Experimental: Coating LDLR-Fc (100 ng/well/100 μl) by 0.01M PBS buffer at pH 7.2 overnight at 4° C., washing three times with PBST, further adding PBST-4% milk, and blocking for one hour at 37° C.; further adding 2 μg/ml PCSK9-His (100 μlwell) diluted by PBST-4% milk, and incubating to one hour at 37° C.; adding complete antibodies DFSK9-1, DFSK9-12, DFSK9-13, DFSK9-14, DFSK9-15, DFSK9-16, DFSK9-17, DFSK9-18, DFSK9-19, DFSK9-20 and DFSK9-21 of different dilution degrees; the highest concentration of the 11 complete antibodies is 100 μg/ml, diluting at a five-time gradient, diluting for eight gradients for each complete antibody, and incubating for 2 hours at 37° C.; washing 5 times with PBST, further adding a mouse-anti His IgG-HRP secondary antibody diluted by PBST-4% milk, and incubating for 1 hour at 37° C.; developing by using the TMB developing kit (100 μl/well), developing for 10 minutes at the room temperature, and terminating developing with 2M H₂SO₄ (50 μl/well); reading numbers by using the microplate reader at 450 nm and 630 nm; analyzing data and drawing pictures by using software GraphPad Prism 5 Demo, and results are shown in FIG. 9 and table 3.

PCSK9-His [3] = biological target: T2, PCSK9-His; assay: ELISA, PCSK9-His coated, complete antibody titrated, anti-human IgG-HRP
Experimental: Coating PCSK9-His (300 ng/well/100 μl) by 0.01M PBS buffer at pH 7.2 overnight at 4° C., washing three times with PBST (1‰ Tween 20) of 300 μl/well, further adding PBST-4% milk, and blocking for one hour at 37° C.; adding complete antibodies DFSK9-1, DFSK9-12, DFSK9-13, DFSK9-14, DFSK9-15, DFSK9-16, DFSK9-17, DFSK9-18, DFSK9-19, DFSK9-20 and DFSK9-21 of different dilution degrees; the highest concentration of the 11 complete antibodies is 50 μg/ml, diluting at a five-time gradient, diluting for eight gradients for each complete antibody, and incubating for one hour at 37° C.; washing 5 times with PBST of 300 μl/well, further adding a goat-anti-human IgG-HRP secondary antibody diluted by PBST-4% milk at a ratio of 1:5000, and incubating for one hour at 37° C.; washing 5 times with PBST of 300 μl/well, developing by using a Tetramethylbenzidine (TMB) developing kit (100 μl/well), developing for 10 minutes at a room temperature, and terminating developing with 2M H₂SO₄ (50 μl/well); reading numbers by using a microplate reader at wavelengths of 450 nm and 630 nm; analyzing data and drawing pictures by using software GraphPad Prism 5Demo, and results are shown in FIG. 8 and table 2.

PCSK9 [4] = biological target: T1, PCSK9; assay: cell-based or functional assay

T1 sequence (Q8NBP7 31-692 limits assumed): as above

Binder | Kd (PCSK9 [1]) | koff (PCSK9 [1]) | kon (PCSK9 [1]) | IC50 (PCSK9-His [2]) | EC50 (PCSK9-His [3]) | EC50 value of bioactivity testing (BODIPY-LDL uptake in HepG2 cells, RFU) (PCSK9 [4])
DFSK9-13 complete antibody (antibody, V domains shown) VH: QVQLVQSGAEVKKPGASVKVSCKASGYSLTSYGISWVRQAPGQGLEWMGWVSFYQGNTNYAQKLQGRGTMTTDPSTSTAYMELRSLRSDDTAVYYCARGYGMTVWGQGTTVTVSS VL: DIQMTQSPSSLSASVGDRVTITCRASQDVDSWLTWYQQKPGKAPKLLIYGASNLASGVPSRFSGSGSGTDFTLTISSLQPEDFATYYCQQDSKIPLTFGQGTKVEIK | 0.052 nM | 2.99e-05 s⁻¹ | 575000 M⁻¹ s⁻¹ | 0.383 µg/mL | 0.0835 µg/mL | 29.6 nmol/L
DFSK9-20 complete antibody (antibody, V domains shown) VH: QVQLVQSGAEVKKPGASVKVSCKASGYSLTSYGISWVRQAPGQGLEWMGWVSFYNGNSNYAQKLQGRGTMTTDPSTSTAYMELRSLRSDDTAVYYCARGFGMDRWGQGTTVTVSS VL: DIQMTQSPSSLSASVGDRVTITCRASQNINNWLNWYQQKPGKAPKLLIYGASTRPTGVPSRFSGSGSGTDFTLTISSLQPEDFATYYCQQWDDTPNTFGQGTKVEIK | 0.0157 nM | 1.45e-05 s⁻¹ | 925000 M⁻¹ s⁻¹ | 0.216 µg/mL | 0.0337 µg/mL | 17.9 nmol/L
DFSK9-18 complete antibody (antibody, V domains shown) VH: QVQLVQSGAEVKKPGASVKVSCKASGYTVTSYGISWVRQAPGQGLEWMGWVSFYNGNSNYAQKLQGRGTMTTDPSTSTAYMELRSLRSDDTAVYYCARGYSLDVWGQGTTVTVSS VL: DIQMTQSPSSLSASVGDRVTITCRASQNINSWLNWYQQKPGKAPKLLIYGASSRQSGVPSRFSGSGSGTDFTLTISSLQPEDFATYYCQQWFDVPTTFGQGTKVEIK | 0.00389 nM | 1.99e-06 s⁻¹ | 512000 M⁻¹ s⁻¹ | 0.107 µg/mL | 0.0339 µg/mL | 23.9 nmol/L
DFSK9-12 complete antibody (antibody, V domains shown) VH: QVQLVQSGAEVKKPGASVKVSCKASGYTVTSYGISWVRQAPGQGLEWMGWLSFYNGNTNYAQKLQGRGTMTTDPSTSTAYMELRSLRSDDTAVYYCARGYSLDVWGQGTTVTVSS VL: DIQMTQSPSSLSASVGDRVTITCRASQSVRNWLDWYQQKPGKAPKLLIYGASTLESGVPSRFSGSGSGTDFTLTISSLQPEDFATYYCQQDNDIPLTFGQGTKVEIK | 0.119 nM | 4.98e-05 s⁻¹ | 418000 M⁻¹ s⁻¹ | 0.266 µg/mL | 0.0646 µg/mL | 
DFSK9-19 complete antibody (antibody, V domains shown) VH: QVQLVQSGAEVKKPGASVKVSCKASGYSLTSYGISWVRQAPGQGLEWMGWVTFYNGNTNYAQKLQGRGTMTTDPSTSTAYMELRSLRSDDTAVYYCARGFGLSVWGQGTTVTVSS VL: DIQMTQSPSSLSASVGDRVTITCRASQNVNNWLNWYQQKPGKAPKLLIYAASTRETGVPSRFSGSGSGTDFTLTISSLQPEDFATYYCQQDNDMPLTFGQGTKVEIK | 0.186 nM | 7.34e-05 s⁻¹ | 395000 M⁻¹ s⁻¹ | 0.533 µg/mL | 0.0832 µg/mL | 
DFSK9-14 complete antibody (antibody, V domains shown) VH: QVQLVQSGAEVKKPGASVKVSCKASGYSLTSYGISWVRQAPGQGLEWMGWVSFYNGQTNYAQKLQGRGTMTTDPSTSTAYMELRSLRSDDTAVYYCARGYGMSIWGQGTTVTVSS VL: DIQMTQSPSSLSASVGDRVTITCRASQNINSWLNWYQQKPGKAPKLLIYGASSRQSGVPSRFSGSGSGTDFTLTISSLQPEDFATYYCQQWFDVPTTFGQGTKVEIK | 0.0293 nM | 7.9e-05 s⁻¹ | 2.7e+06 M⁻¹ s⁻¹ | 0.146 µg/mL | 0.0422 µg/mL | 16.6 nmol/L
DFSK9-16 complete antibody (antibody, V domains shown) VH: QVQLVQSGAEVKKPGASVKVSCKASGYTVTSYGISWVRQAPGQGLEWMGWVSFYQGNTNYAQKLQGRGTMTTDPSTSTAYMELRSLRSDDTAVYYCARGFGMDRWGQGTTVTVSS VL: DIQMTQSPSSLSASVGDRVTITCRASQNINSWLNWYQQKPGKAPKLLIYGASSRQSGVPSRFSGSGSGTDFTLTISSLQPEDFATYYCQQWFDVPTTFGQGTKVEIK | 0.0461 nM | 5.61e-05 s⁻¹ | 1.22e+06 M⁻¹ s⁻¹ | 0.282 µg/mL | 0.0562 µg/mL | 23.8 nmol/L
DFSK9-17 complete antibody (antibody, V domains shown) VH: QVQLVQSGAEVKKPGASVKVSCKASGYTVTSYGISWVRQAPGQGLEWMGWVSFYNGNSNYAQKLQGRGTMTTDPSTSTAYMELRSLRSDDTAVYYCARGYSLDVWGQGTTVTVSS VL: DIQMTQSPSSLSASVGDRVTITCRASQNINNWLNWYQQKPGKAPKLLIYGASTRPTGVPSRFSGSGSGTDFTLTISSLQPEDFATYYCQQWDDTPNTFGQGTKVEIK | 0.00156 nM | 1.84e-06 s⁻¹ | 1.18e+06 M⁻¹ s⁻¹ | 0.089 µg/mL | 0.0314 µg/mL | 18.5 nmol/L
DFSK9-15 complete antibody (antibody, V domains shown) VH: QVQLVQSGAEVKKPGASVKVSCKASGYTVTSYGISWVRQAPGQGLEWMGWVSFYNGQTNYAQKLQGRGTMTTDPSTSTAYMELRSLRSDDTAVYYCARGYSLDVWGQGTTVTVSS VL: DIQMTQSPSSLSASVGDRVTITCRASQNINNWLNWYQQKPGKAPKLLIYGASTRPTGVPSRFSGSGSGTDFTLTISSLQPEDFATYYCQQWDDTPNTFGQGTKVEIK | 0.00875 nM | 4.75e-06 s⁻¹ | 542000 M⁻¹ s⁻¹ | 0.114 µg/mL | 0.0397 µg/mL | 15.3 nmol/L
DFSK9-21 complete antibody (antibody, V domains shown, also called DF5K9-21) VH: QVQLVQSGAEVKKPGASVKVSCKASGYSLTSYGISWVRQAPGQGLEWMGWVSFYNGQTNYAQKLQGRGTMTTDPSTSTAYMELRSLRSDDTAVYYCARGFGMDRWGQGTTVTVSS VL: DIQMTQSPSSLSASVGDRVTITCRASQNINNWLNWYQQKPGKAPKLLIYGASTRPTGVPSRFSGSGSGTDFTLTISSLQPEDFATYYCQQWDDTPNTFGQGTKVEIK | 0.00716 nM | 4.24e-06 s⁻¹ | 592000 M⁻¹ s⁻¹ | 0.161 µg/mL | 0.0282 µg/mL | 20.3 nmol/L
DFSK9-1 complete antibody (antibody, V domains shown) VH: QVQLVQSGAEVKRPGASVKVSCKASGGTFTNNAISWVRQAPGQGLEWMGRIIPMFGMANYAQKLQGRGTMTTDPSTSTAYMELRSLRSDDTAVYYCAREGIPMIWGQGTTVTVSS VL: DIQMTQSPSSLSASVGDRVTITCRASQSIDNRLTWYQQKPGKAPKLLIYDASSRQSGVPSRFSGSGSGTDFTLTISSLQPEDFATYYCQQPENDPTTFGQGTKVEIK | 0.175 nM | 9.19e-05 s⁻¹ | 518000 M⁻¹ s⁻¹ | 0.847 µg/mL | 0.171 µg/mL | 
